Measured values as given in PMC4599408.

Biological target: GST-Kv4.3 NT (human)
Test: pull-down

Sequence of GST-Kv4.3 NT (human) (Q9UK17 whole entry): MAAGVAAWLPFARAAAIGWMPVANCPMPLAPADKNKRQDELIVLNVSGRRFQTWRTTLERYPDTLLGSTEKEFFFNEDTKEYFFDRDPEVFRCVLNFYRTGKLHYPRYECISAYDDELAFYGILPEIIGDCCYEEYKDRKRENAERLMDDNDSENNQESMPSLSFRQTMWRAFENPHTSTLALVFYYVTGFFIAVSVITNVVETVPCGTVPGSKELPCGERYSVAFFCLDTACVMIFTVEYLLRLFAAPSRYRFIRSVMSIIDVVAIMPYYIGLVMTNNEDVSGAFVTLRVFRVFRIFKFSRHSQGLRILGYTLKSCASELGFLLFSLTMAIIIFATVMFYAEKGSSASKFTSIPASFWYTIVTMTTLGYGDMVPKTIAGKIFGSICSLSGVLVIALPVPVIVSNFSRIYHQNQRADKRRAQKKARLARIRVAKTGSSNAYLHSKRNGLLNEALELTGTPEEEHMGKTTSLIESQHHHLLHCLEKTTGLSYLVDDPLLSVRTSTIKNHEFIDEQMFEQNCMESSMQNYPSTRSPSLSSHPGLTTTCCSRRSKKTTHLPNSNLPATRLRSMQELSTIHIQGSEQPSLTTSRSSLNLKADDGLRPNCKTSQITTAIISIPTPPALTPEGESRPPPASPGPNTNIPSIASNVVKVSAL

- fold binding activity relative to DPP6-T: > 2 fold
Substance: DPP6-T p.H332R variant, in vitro translated and radiolabeled (natural protein)
